What all share (assay): MSD multispot ECL, antigen spotted, Fab 2383 nM; blank spot 344
Assay [1] addresses T1, rHuman Erythropoietin R/Fc Chimera, CF (R&D Systems Cat#963-ER) (human, UniProt P19235 25-250).
T1 construct: Bought reagent; also called EPO R/Fc; Epo R
T1 sequence (looked up): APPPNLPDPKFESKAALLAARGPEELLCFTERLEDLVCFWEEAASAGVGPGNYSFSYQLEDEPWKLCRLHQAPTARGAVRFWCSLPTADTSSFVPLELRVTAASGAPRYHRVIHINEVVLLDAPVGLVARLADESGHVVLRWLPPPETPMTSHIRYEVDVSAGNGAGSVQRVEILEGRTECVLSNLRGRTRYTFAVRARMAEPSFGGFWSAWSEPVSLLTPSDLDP

The target in assay [2] is T2, rHuman CD44/Fc Chimera, CF (R&D Systems Cat#3660-CD) (human, UniProt P16070 21-220).
T2 construct: Bought reagent

Assay [3] deals with T3, rHuman EGF R/Fc Chimera, CF (R&D Systems Cat#344-ER) (human, UniProt P00533 25-645).
T3 construct: Bought reagent; also called epidermal growth factor receptor

B1: Fab VH1-46_IGHD6-6*01_IGHJ1*01 & L6_IGKJ1*01 (Fab, V domains shown)
VH: QVQLVQSGAEVKKPGASVKVSCKASGYTFTSYYMHWVRQAPGQGLEWMGIINPSGGSTSYAQKFQGRVTMTRDTSTSTVYMELSSLRSEDTAVYYCAREEYSSSSAEYFQHWGQGTLVTVSS
VL: not shown
notes: Only variable domains are tied to the molecule; Tested as a Fab made in E. coli: heavy chain from Plasmid A (CH1 constant region, His6 and Flag tags), kappa light chain from Plasmid C (kappa CL); also called parent Hit Fab against DLL4; VH1-46_IGHD6-6*01_IGHJ1*01 & L6_IGKJ1*01 (parental)
With B1, the ECL signal in assay [1] was found to be 658 ECL signal; in assay [2] it was 559 ECL signal; in assay [3], 621 ECL signal.

The record behind these values is US20120316071A1 (published 2012).
